This note sets out measurements from patent publication US20230212306A1 (Daiichi Sankyo, published 2023).

The target of experiment [1] is T1, monkey TLR7-Flag-His×6, expressed in Ba/F3 cells (monkey, UniProt Q9NYK1 27-1049 (human entry)).
T1 construct: cells permeabilised with 0.1% saponin; not shown: Flag-His×6 tag added to the C-terminus
T1 chain: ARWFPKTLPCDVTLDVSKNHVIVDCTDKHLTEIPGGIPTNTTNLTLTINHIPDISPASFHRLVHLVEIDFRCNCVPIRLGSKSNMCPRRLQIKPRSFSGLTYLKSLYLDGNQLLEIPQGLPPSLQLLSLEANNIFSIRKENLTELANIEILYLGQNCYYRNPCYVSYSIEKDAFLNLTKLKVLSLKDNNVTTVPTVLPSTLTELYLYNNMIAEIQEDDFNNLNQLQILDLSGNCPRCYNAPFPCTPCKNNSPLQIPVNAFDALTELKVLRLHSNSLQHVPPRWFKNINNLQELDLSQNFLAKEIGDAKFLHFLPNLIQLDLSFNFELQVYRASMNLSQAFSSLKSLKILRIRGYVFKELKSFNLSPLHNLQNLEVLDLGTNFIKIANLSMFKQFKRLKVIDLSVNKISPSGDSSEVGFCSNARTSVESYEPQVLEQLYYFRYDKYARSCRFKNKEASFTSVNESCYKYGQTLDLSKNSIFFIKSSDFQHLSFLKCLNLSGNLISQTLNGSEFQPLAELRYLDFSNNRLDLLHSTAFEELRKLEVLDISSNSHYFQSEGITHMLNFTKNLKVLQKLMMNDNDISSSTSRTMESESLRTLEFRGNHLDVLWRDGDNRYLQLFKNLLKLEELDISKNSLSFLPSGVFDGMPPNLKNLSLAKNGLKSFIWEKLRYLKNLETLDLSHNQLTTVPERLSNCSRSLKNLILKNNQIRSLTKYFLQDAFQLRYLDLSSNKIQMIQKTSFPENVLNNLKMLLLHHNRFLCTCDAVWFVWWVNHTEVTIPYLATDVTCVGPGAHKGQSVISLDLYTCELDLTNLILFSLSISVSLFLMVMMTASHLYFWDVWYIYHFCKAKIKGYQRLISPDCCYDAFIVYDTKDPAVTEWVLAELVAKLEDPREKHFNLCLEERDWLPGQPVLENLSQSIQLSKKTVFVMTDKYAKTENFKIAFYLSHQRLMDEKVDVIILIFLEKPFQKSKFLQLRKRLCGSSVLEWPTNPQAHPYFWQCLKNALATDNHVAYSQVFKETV
The experiment can be described thus: flow cytometry (MFI) on saponin-permeabilised Ba/F3 cells expressing monkey TLR7-Flag-His×6. From the text: (§1) The Ba/F3 cell line expressing human TLR7-Flag-His×6/human Unc93B1-HA×2 established above in 1)-1-1, the Ba/F3 cell line expressing mouse TLR7-Flag-His×6 established above in 2)-1-1, the Ba/F3 cell line expressing rat TLR7-Flag-His×6×2 established above in 2)-1-2, and the Ba/F3 cell line expressing monkey TLR7-Flag-His×6 established above in 2)-1-3 were subjected to membrane permeation with 0.1% Saponin and stained using AT01 antibody, NB7 antibody, and FAN2 antibody, and a secondary antibody, Goat anti-mouse IgG (H+L)-PE (eBioscience). The binding selectivity of each antibody was evaluated by comparing the average fluorescence intensity (MFI) based on flow cytometry analysis.
On the technique in general: Flow cytometry measures light scatter and fluorescence of single cells or particles in a stream.

Experiment [2] has as its target T2, human TLR7-Flag-His×6 (human TLR7 variant 2), expressed in Ba/F3 cells together with human Unc93B1-HA×2 (human, UniProt Q9NYK1 27-1049).
T2 construct: Cells were permeabilised with 0.1% saponin before staining; also called hTLR7-Flag-His×6; not shown: Flag-His×6 tag added to the C-terminus
T2 sequence: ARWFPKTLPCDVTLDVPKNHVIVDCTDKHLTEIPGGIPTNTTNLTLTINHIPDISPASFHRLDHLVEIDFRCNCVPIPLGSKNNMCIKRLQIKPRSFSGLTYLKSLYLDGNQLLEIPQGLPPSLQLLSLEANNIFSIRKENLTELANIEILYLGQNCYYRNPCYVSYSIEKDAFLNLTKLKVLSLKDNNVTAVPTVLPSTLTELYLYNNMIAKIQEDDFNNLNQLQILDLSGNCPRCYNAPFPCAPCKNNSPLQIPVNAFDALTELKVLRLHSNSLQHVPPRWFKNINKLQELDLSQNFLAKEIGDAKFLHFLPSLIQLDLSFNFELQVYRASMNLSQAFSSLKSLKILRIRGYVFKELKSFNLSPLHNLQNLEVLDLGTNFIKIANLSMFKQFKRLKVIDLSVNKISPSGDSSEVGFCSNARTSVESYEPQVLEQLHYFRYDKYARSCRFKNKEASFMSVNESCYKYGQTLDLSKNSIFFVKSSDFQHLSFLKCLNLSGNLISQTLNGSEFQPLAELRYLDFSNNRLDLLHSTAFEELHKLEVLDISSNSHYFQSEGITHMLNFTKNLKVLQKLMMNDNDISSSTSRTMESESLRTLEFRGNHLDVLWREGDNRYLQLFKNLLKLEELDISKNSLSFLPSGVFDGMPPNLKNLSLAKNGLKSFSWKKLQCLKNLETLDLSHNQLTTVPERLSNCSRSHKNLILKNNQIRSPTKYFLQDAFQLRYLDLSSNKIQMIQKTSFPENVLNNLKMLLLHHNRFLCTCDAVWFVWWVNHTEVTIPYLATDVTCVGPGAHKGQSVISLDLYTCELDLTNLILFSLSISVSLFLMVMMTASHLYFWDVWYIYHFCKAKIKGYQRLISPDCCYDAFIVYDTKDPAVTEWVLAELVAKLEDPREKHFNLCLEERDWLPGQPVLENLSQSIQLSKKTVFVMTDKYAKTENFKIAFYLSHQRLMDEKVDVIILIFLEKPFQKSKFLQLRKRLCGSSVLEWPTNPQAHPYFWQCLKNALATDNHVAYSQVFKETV
The experiment can be described thus: flow cytometry (MFI) on saponin-permeabilised Ba/F3 cells expressing human TLR7-Flag-His×6/human Unc93B1-HA×2.
Excerpt: as §1

B1: AT01 antibody (antibody, IgG1, V domains shown)
VH: QVQLQQPGAELVKPGASVNLSCKASGYTFTNNWLHWVKQRPGRGLEWIGDIYPSNGRTNYNEQFKTKATLTVDKSSSTAYMQLSSLTSEDSAVYFCARERGYFDYWGQGTALTVSS
VL: DIQMTQSPSSLSTSLGGKVTITCKASQDINKYIAWYQHKPGKGPRLLIHYTSTLQPGIPSRFSGSGSGRDYSFSISNLEPEDIATYYCLQYDYLLTFGAGTKLELK
notes: also called mouse anti-human TLR7 antibody (AT01)
Consider B1, for which the binding result in experiment [1] and in experiment [2] was “binds” each time.

B2: NB7 antibody (antibody, IgG1, V domains shown)
VH: DVQLQESGPGLVKPSQSLSLTCTVTGYSITSDYAWNWIRQFPGNKLEWMGHISYRGNTNYNPSLKSRISITRDTSKNQFFLQLNSVTTEDTATYYCASWNYYGYVDYAMDYWGQGTSVTVSS
VL: DIQMTQTPSSLSASLGDRVTISCRASQDISNYLNWYQQKPDGTVKLLIYYTSRLHSGVPSRFSGSGSGTDYSLTINNLEQEDIATYFCQQGDTFPTFGGGTKLEIK
notes: also called mouse anti-human TLR7 antibody (NB7)
Turning to B2, the binding result in experiment [1] and in experiment [2] was “binds” each time.

B3: FAN2 antibody (antibody, IgG1, V domains shown)
VH: QVQLKESGPGLVAPSQSLSITCTVSGFSLTGYGVNWVRQPPGKGLEWLGMIWGDGSTDYNSALKSRLSIRKDNSKSQVFLKMNSLQTDDTARYYCARDKGYDGYYYAMDYWGQGTSVTVSS
VL: DIQMTQSPASLSASVGETVTITCRASENIYSYLAWYQQKQGKSPQLLVYDAKTLAEGVPSRFSGSGSGTQFSLKINSLQPEDFGSYYCQHHYGIPYTFGGGTKLEIK
notes: also called mouse anti-human TLR7 antibody (FAN2)
On to B3, for which the binding result in experiment [1] and in experiment [2] was “binds” each time.
